Results published in PMC2965674, “Functional Roles of the N- and C-Terminal Regions of the Human Mitochondrial Single-Stranded DNA-Binding Protein” (PLoS ONE, 2010).

Experiments:
[1] = target: HsmtSSBΔN, deletion variant lacking the first 9 residues in the N-terminus of mature HsmtSSB (human); assay: SEC + other: glycerol gradient velocity sedimentation; 12-30% glycerol gradients, 264,000 x g, 63 hr, 4°C, 35 mM Tris-HCl pH 7.5, 100 mM NaCl, 2 mM EDTA, 5 mM DTT; Superdex 75 gel filtration in the same buffer with 8% glycerol, 4°C; native mass calculated from the S value and the Stokes radius
[2] = target: the molecule itself; assay: as above
HsmtSSBΔN = target: T1, HsmtSSBΔN (Homo sapiens, UniProt Q04837 =M+26-148, internal_change); assay: EMSA; 50 mM NaCl, 4 mM Mg2+; apparent Kd, protein as tetramer; 20 mM Tris-HCl pH 7.5, 1 mM DTT, 4 mM MgCl2, 50 mM NaCl, 36 fmol 48-mer in 20 µL, 20°C 10 min; 6% native PAGE; conditions: protein: recombinant; tags: none (untagged); chain copies: 4; label: 5'-32P; single strand
T1 sequence: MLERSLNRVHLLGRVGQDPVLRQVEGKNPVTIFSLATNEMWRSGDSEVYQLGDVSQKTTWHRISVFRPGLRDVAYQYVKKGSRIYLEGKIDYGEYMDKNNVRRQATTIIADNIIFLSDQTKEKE

HsmtSSBΔNΔC = target: T2, HsmtSSBΔNΔC (Homo sapiens, UniProt Q04837 =M+26-141, internal_change); assay: as above; conditions: protein: recombinant; tags: none (untagged); chain copies: 4; label: 5'-32P; single strand
T2 sequence: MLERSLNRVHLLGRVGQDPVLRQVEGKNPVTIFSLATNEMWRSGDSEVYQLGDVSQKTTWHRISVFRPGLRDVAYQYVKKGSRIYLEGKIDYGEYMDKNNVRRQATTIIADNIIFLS

[3] = target: T3, HsmtSSBwt (mature human mitochondrial SSB) (Homo sapiens, UniProt Q04837 17-148); assay: as above; conditions: protein: recombinant; tags: none (untagged); chain copies: 4; label: 5'-32P; single strand
T3 sequence: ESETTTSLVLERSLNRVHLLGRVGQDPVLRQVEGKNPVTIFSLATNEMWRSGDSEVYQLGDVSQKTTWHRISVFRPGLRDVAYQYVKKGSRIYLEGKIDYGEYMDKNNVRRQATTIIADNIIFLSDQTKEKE

HsmtSSBΔC = target: T4, HsmtSSBΔC (Homo sapiens, UniProt Q04837 =M+17-141, internal_change); assay: as above; conditions: protein: recombinant; tags: none (untagged); chain copies: 4; label: 5'-32P; single strand
T4 sequence: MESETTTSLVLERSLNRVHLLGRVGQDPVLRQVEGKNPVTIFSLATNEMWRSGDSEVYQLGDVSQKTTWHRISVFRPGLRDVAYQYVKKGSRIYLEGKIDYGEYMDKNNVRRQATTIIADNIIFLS

“HsmtSSBΔN, deletion variant lacking the first 9 residues in the N-terminus of mature HsmtSSB (domain or fragment)” was tested, and the stoichiometry N [1] was 4.

B1: HsmtSSBΔC, deletion variant lacking the last 7 residues in the C-terminus of HsmtSSB (domain or fragment, human, UniProt Q04837 17-141, looked up)
chain: ESETTTSLVLERSLNRVHLLGRVGQDPVLRQVEGKNPVTIFSLATNEMWRSGDSEVYQLGDVSQKTTWHRISVFRPGLRDVAYQYVKKGSRIYLEGKIDYGEYMDKNNVRRQATTIIADNIIFLS
notes: human mtSSB, mature protein lacking its last 7 residues; numbers count on: the mature protein; Untagged; The reverse primer puts a new stop codon after codons that read ...D-N-I-I-F-L-S. A start methionine precedes the first mature residue
In the case of B1, the “stoichiometry N” value [2] is reported as 4.

B2: human mitochondrial single-stranded DNA-binding protein, mature wild type (HsmtSSBwt) (natural protein, UniProt Q04837 17-148, looked up)
chain: ESETTTSLVLERSLNRVHLLGRVGQDPVLRQVEGKNPVTIFSLATNEMWRSGDSEVYQLGDVSQKTTWHRISVFRPGLRDVAYQYVKKGSRIYLEGKIDYGEYMDKNNVRRQATTIIADNIIFLSDQTKEKE
notes: numbers count on: the mature protein; Untagged; The forward primer (CATATG GAGTCC...) puts a start methionine before the first mature residue; also called human mtSSB; source: E. coli BL21(DE3), pET-11a, untagged, purified (Blue Sepharose, phosphocellulose)
In the case of B2, the “stoichiometry N” value [2] is reported as 4.

B3: 48-mer ssDNA oligonucleotide (ssDNA)
DNA: GGACTATTTATTAAATATATTTAAGAACTAATTCCAGCTGAGCGCCGG
Molecule B3 has a Kd (HsmtSSBΔN) of roughly 5 nM, a Kd (HsmtSSBΔNΔC) of roughly 5 nM and a Kd [3] of roughly 5 nM. It also gave a Kd (HsmtSSBΔC) of roughly 5 nM.

B4: HsmtSSBΔNΔC, variant of HsmtSSB that lacks both termini (first 9 and last 7 residues of the mature protein) (domain or fragment, human, UniProt Q04837 26-141, looked up)
chain: LERSLNRVHLLGRVGQDPVLRQVEGKNPVTIFSLATNEMWRSGDSEVYQLGDVSQKTTWHRISVFRPGLRDVAYQYVKKGSRIYLEGKIDYGEYMDKNNVRRQATTIIADNIIFLS
notes: human mtSSB, mature protein lacking its first 9 and its last 7 residues; numbers count on: the mature protein; Untagged; Made with the forward primer of ΔN (new start methionine before L-E-R-S) and the reverse primer of ΔC (stop after ...F-L-S); source: E. coli BL21(DE3), pET-11a, untagged, purified (Blue Sepharose, phosphocellulose)
In the case of B4, the “stoichiometry N” value [2] is reported as 4.
